Data taken from paper PMC7752801.

Target: streptolysin O (SLO) isolated from group A Streptococcus (Streptococcus pyogenes (group A Streptococcus)) (UniProt P0C0I3)
Experiment: other fluorescence titration; SLO at 2.0×10^−8 M mixed with HSA from 0 M to 4.0×10^−8 M; fluorescence between 300 nm and 400 nm, excitation 280; apparent Kd from Eq. 1

Chain of UniProt P0C0I3 (P0C0I3 34-571): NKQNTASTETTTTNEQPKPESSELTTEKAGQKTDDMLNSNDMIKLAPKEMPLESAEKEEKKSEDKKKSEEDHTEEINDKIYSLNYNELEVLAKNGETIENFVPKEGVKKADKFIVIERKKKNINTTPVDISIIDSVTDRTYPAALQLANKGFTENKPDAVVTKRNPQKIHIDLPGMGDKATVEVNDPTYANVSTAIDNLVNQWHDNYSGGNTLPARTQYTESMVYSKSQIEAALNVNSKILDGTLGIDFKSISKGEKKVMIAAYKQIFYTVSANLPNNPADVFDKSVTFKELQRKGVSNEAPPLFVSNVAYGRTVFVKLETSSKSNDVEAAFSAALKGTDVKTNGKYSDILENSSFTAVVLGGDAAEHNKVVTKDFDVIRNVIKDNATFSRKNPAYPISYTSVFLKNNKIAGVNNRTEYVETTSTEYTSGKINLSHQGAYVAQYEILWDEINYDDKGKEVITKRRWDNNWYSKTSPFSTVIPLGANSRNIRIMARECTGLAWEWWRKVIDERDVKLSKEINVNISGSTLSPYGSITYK

“L305A/F374A 6×His-tag-HSA (double mutant Leu305Ala/Phe374Ala) (natural protein)” gave a Kd of 7.3 nM.
